{
  "source": "patent US7479482B2",
  "about": "(priority 2001, dated 2009)",
  "key": {"[1]": {"format": "physicochemical"}, "[2]": {"tested_on": "human neuroblastoma cell line (SK-N-SH)"}, "Tg2576 mice": {"tested_on": "Tg2576 mice", "conditions": "mouse, in vivo"}},
  "note": "Where two headings read alike, the source gives them in different places.",
  "data": [
    {"substance": "Aβ1-42: amyloid β peptide 1-42, control peptide and comparison immunogen", "values": [
      {"measurement": "alpha (secondary structure by CD)", "setting": "[1]; Time 0 hr", "result": 9, "unit": "%"},
      {"measurement": "beta-sheet (secondary structure by CD)", "setting": "[1]; Time 0 hr", "result": 36, "unit": "%"},
      {"measurement": "random (secondary structure by CD)", "setting": "[1]; Time 0 hr", "result": 55, "unit": "%"},
      {"measurement": "alpha (secondary structure by CD)", "setting": "[1]; Time 24 hr", "result": 9, "unit": "%"},
      {"measurement": "beta-sheet (secondary structure by CD)", "setting": "[1]; Time 24 hr", "result": 40, "unit": "%"},
      {"measurement": "random (secondary structure by CD)", "setting": "[1]; Time 24 hr", "result": 51, "unit": "%"},
      {"measurement": "alpha (secondary structure by CD)", "setting": "[1]; Time 96 hr", "result": 5, "unit": "%"},
      {"measurement": "beta-sheet (secondary structure by CD)", "setting": "[1]; Time 96 hr", "result": 55, "unit": "%"},
      {"measurement": "random (secondary structure by CD)", "setting": "[1]; Time 96 hr", "result": 40, "unit": "%"},
      {"measurement": "aggregates visible under the microscope in culture wells", "setting": "[2]", "result": "aggregates were visible"},
      {"measurement": "toxicity to neuroblastoma cells (MTT)", "setting": "[2]", "result": "toxic"},
      {"measurement": "radial arm maze skills", "setting": "Tg2576 mice", "result": "had the radial arm maze skills of the positive control"}
    ]}
  ]
}
